B1: Tumor necrosis factor receptor superfamily member 4 (Mus musculus), P47741 (parent)
chain: MYVWVQQPTALLLLALTLGVTARRLNCVKHTYPSGHKCCRECQPGHGMVSRCDHTRDTLCHPCETGFYNEAVNYDTCKQCTQCNHRSGSELKQNCTPTQDTVCRCRPGTQPRQDSGYKLGVDCVPCPPGHFSPGNNQACKPWTNCTLSGKQTRHPASDSLDAVCEDRSLLATLLWETQRPTFRPTTVQSTTVWPRTSELPSPPTLVTPEGPAFAVLLGLGLGLLAPLTVLLALYLLRKAWRLPNTPKPCWGNSFRTPIQEEHTDAHFTLAKI
partner: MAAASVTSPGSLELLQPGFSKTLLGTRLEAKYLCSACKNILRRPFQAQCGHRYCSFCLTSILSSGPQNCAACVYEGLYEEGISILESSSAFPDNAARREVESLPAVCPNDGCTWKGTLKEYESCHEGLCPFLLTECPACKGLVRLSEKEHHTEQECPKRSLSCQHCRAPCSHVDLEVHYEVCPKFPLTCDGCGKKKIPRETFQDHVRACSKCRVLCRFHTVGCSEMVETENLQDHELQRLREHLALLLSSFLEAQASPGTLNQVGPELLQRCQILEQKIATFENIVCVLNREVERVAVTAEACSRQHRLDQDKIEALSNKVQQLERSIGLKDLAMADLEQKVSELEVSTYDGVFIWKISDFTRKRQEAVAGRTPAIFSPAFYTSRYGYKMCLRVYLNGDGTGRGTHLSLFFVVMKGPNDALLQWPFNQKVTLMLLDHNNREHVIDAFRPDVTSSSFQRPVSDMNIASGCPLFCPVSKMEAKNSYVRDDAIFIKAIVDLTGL
B2: Tumor necrosis factor receptor superfamily member 4 (Mus musculus), P47741 (parent)
chain: B1 chain
partner: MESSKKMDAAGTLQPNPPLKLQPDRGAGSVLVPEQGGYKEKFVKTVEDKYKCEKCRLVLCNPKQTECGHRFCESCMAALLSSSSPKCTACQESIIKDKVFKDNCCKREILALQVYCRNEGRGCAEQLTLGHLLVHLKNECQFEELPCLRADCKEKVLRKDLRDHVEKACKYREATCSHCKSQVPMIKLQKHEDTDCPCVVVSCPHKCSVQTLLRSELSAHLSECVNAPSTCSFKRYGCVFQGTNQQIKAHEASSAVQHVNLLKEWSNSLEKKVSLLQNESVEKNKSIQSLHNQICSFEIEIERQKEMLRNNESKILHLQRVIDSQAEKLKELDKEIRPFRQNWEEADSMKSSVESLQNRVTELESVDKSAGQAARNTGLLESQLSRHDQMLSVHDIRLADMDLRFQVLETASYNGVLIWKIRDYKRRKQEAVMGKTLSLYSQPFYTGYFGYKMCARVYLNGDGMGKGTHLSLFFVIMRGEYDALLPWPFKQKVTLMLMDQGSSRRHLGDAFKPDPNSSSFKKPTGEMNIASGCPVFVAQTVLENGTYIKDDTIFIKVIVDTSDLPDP

Variants of: B1
Settings: with traf2_mouse Traf2, P39429

| effect of a mutation on the interaction | Variant |
| --- | --- |
| decreasing interaction strength | MYVWVQQPTALLLLALTLGVTARRLNCVKHTYPSGHKCCRECQPGHGMVSRCDHTRDTLCHPCETGFYNEAVNYDTCKQCTQCNHRSGSELKQNCTPTQDTVCRCRPGTQPRQDSGYKLGVDCVPCPPGHFSPGNNQACKPWTNCTLSGKQTRHPASDSLDAVCEDRSLLATLLWETQRPTFRPTTVQSTTVWPRTSELPSPPTLVTPEGPAFAVLLGLGLGLLAPLTVLLALYLLRKAWRLPNTPKPCWGNSFRTPIQEEAAAAHFTLAKI [H262A;T263A;D264A] |
| disrupting interaction strength | MYVWVQQPTALLLLALTLGVTARRLNCVKHTYPSGHKCCRECQPGHGMVSRCDHTRDTLCHPCETGFYNEAVNYDTCKQCTQCNHRSGSELKQNCTPTQDTVCRCRPGTQPRQDSGYKLGVDCVPCPPGHFSPGNNQACKPWTNCTLSGKQTRHPASDSLDAVCEDRSLLATLLWETQRPTFRPTTVQSTTVWPRTSELPSPPTLVTPEGPAFAVLLGLGLGLLAPLTVLLALYLLRKAWRLPNTPKPCWGNSFRAAAQEEHTDAHFTLAKI [T256A;P257A;I258A] |
| disrupting interaction strength | MYVWVQQPTALLLLALTLGVTARRLNCVKHTYPSGHKCCRECQPGHGMVSRCDHTRDTLCHPCETGFYNEAVNYDTCKQCTQCNHRSGSELKQNCTPTQDTVCRCRPGTQPRQDSGYKLGVDCVPCPPGHFSPGNNQACKPWTNCTLSGKQTRHPASDSLDAVCEDRSLLATLLWETQRPTFRPTTVQSTTVWPRTSELPSPPTLVTPEGPAFAVLLGLGLGLLAPLTVLLALYLLRKAWRLPNTPKPCWGNSFRTPIAAAHTDAHFTLAKI [Q259A;E260A;E261A] |

Variants of: B2
Settings: with traf3_mouse Traf3, Q60803

| effect of a mutation on the interaction | Variant |
| --- | --- |
| disrupting interaction strength | MYVWVQQPTALLLLALTLGVTARRLNCVKHTYPSGHKCCRECQPGHGMVSRCDHTRDTLCHPCETGFYNEAVNYDTCKQCTQCNHRSGSELKQNCTPTQDTVCRCRPGTQPRQDSGYKLGVDCVPCPPGHFSPGNNQACKPWTNCTLSGKQTRHPASDSLDAVCEDRSLLATLLWETQRPTFRPTTVQSTTVWPRTSELPSPPTLVTPEGPAFAVLLGLGLGLLAPLTVLLALYLLRKAWRLPNTPKPCWGNSFRAAAQEEHTDAHFTLAKI [T256A;P257A;I258A] |
| decreasing interaction strength | MYVWVQQPTALLLLALTLGVTARRLNCVKHTYPSGHKCCRECQPGHGMVSRCDHTRDTLCHPCETGFYNEAVNYDTCKQCTQCNHRSGSELKQNCTPTQDTVCRCRPGTQPRQDSGYKLGVDCVPCPPGHFSPGNNQACKPWTNCTLSGKQTRHPASDSLDAVCEDRSLLATLLWETQRPTFRPTTVQSTTVWPRTSELPSPPTLVTPEGPAFAVLLGLGLGLLAPLTVLLALYLLRKAWRLPNTPKPCWGNSFRTPIQEEAAAAHFTLAKI [H262A;T263A;D264A] |
| disrupting interaction strength | MYVWVQQPTALLLLALTLGVTARRLNCVKHTYPSGHKCCRECQPGHGMVSRCDHTRDTLCHPCETGFYNEAVNYDTCKQCTQCNHRSGSELKQNCTPTQDTVCRCRPGTQPRQDSGYKLGVDCVPCPPGHFSPGNNQACKPWTNCTLSGKQTRHPASDSLDAVCEDRSLLATLLWETQRPTFRPTTVQSTTVWPRTSELPSPPTLVTPEGPAFAVLLGLGLGLLAPLTVLLALYLLRKAWRLPNTPKPCWGNSFRTPIAAAHTDAHFTLAKI [Q259A;E260A;E261A] |
